Biological target: Biotinylated histone H3 peptide (aa 21-44) tri-methylated on K27 (UniProt P68431)
Assay: pull-down

- fold change of the amount bound against Pc2 (1-100): > 4 fold
Substance: GST-SUMO1-fused Pc2(1-100) (from UniProt O00257 1-100)
